Reference: patent publication US6130078

System: NspHI restriction endonuclease (NspHIR) (Nostoc sp. (ATCC 29106))
Experiment: cleavage_in_vitro
Conditions: cell extract dilutions 10^-1 to 10^-5 on lambda DNA

Q: For bacteriophage lambda DNA, which activity (units per g wet cells) is on record?
A: The activity (units per g wet cells) was 186000.
